Assay results reported in patent publication US12497461B2, “Human NTCP-binding antibody capable of inhibiting infection of hepatitis B virus (HBV) to human hepatocytes” (priority 2019, dated 2025).

Assays:
[1] = target: T1, epitope region-containing peptide fragment (AFPPEVIGPLFFFPLLYMIFQLGEG-biotin) (Homo sapiens, UniProt Q14973); assay: Surface plasmon resonance assay (BIAcore) of antigen binding affinity
T1 sequence (Q14973 273-297 limits assumed): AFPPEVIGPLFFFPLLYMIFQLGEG
Method: In short, a carboxymethylated dextran biosensor chip (CM5, BIAcore Inc.) was activated by N-ethyl-N′-(3-dimethylaminopropyl)-carbodiimide hydrochloride (EDC) and N-hydroxysuccinimide (NHS) in accordance with the provider's instruction. An anti-mouse IgG antibody was diluted with 10 mM sodium acetate (pH5.2) up to 30 μg/ml. The dilution was injected at a flow rate of 5 to 10 μl/minute such that the reaction unit (RU) of the protein bound became 9,000 to 14,000 RU. In contrast, an anti-human IgG antibody was diluted with 10 mM sodium acetate (pH5.0) up to 25 μg/ml. The diluted antibody was injected at a flow rate of 5 to 10 μl/minute such that the reaction unit (RU) of the protein bound became 9,000 to 14,000 RU. After injection of each of the anti IgG antibodies, 1 M ethanolamine was injected in order to block unreactive groups. For kinetic measurement, N6HB426 antibody diluted with a running buffer (HBS-P: 10 mM HEPES pH7.5, 150 mM NaCl, 0.005% NP40) up to 10 μg/ml was immobilized onto CM5 chip via the anti-mouse IgG antibody, in advance. To the chip, a solution of an epitope region-containing peptide fragment ([…]-biotin: SEQ ID NO: 24) diluted with the running buffers at different concentrations was added at 25° C. at a flow rate of 10 μl/minute for 2 minutes. In contrast, the recombinant N6HB426 human chimeric IgG4 antibody was diluted with the running buffer up to 10 μg/ml and then was immobilized onto a sensor chip (CM5) via the anti-human IgG antibody in advance. To the chip, a solution of an epitope region-containing peptide fragment diluted with the running buffers at different concentrations was added at 25° C. at a flow rate of 10 μl/minute for 2 minutes.
The refractive index of the solution varied in correlation to the mass of a chip surface changed when a peptide fragment molecule bound to N6HB426 antibody on the sensor chip, was monitored in real-time. Using simple one-to-one Langmuir binding model (BIAcore Evaluation software version 3.1) by fitting sensor grams of antigen-antibody association and dissociation at the same time, association rate (Ka) and dissociation rate (Kd) were calculated. A Kd/Ka ratio was calculated to obtain an equilibrium dissociation constant (KD).

[2] = tested on: HBV (Genotype C or Genotype D); assay: Live HBV infection of normal human hepatocytes (PXB cells), HBs antigen; conditions: FIG. 2B, listed as N6HB426-20 antibody gene-derived recombinant antibody
[3] = 25° C., antibody immobilized on CM5 chip

B1: Recombinant mouse IgG2a antibody: N6HB426 variable regions connected to a constant region of mouse IgG2a antibody (antibody)
heavy: QVQLQQSGAELVKPGASVKLSCKASDFTFTEYTIHWIKQMSGQGLEWIGWFYPGSGDIKYSEKFKDKATLTADKSSSTVYMELNRLTSEDSAVYFCARHMRDFRGFYYGRFYFDYWGQGTTLTVSSAKTTAPSVYPLAPVCGGTTGSSVTLGCLVKGYFPEPVTLTWNSGSLSSGVHTFPALLQSGLYTLSSSVTVTSNTWPSQTITCNVAHPASSTKVDKKIEPRGPTIKPCPPCKCPAPNLLGGPSVFIFPPKIKDVLMISLSPIVTCVVVDVSEDDPDVQISWFVNNVEVHTAQTQTHREDYNSTLRVVSALPIQHQDWMSGKEFKCKVNNKDLPAPIERTISKPKGSVRAPQVYVLPPPEEEMTKKQVTLTCMVTDFMPEDIYVEWTNNGKTELNYKNTEPVLDSDGSYFMYSKLRVEKKNWVERNSYSCSVVHEGLHNHHTTKSFSRTPGK
light: EIVLTQSPAIMSASPGEKVTITCRASSSVSSSYLHWYQQKSGVSPKLWIYSTSNLASGVPARFSGSGSGTSYSLTINSVEAEDAATYYCQQYSGYRWTFGGGTTLEIKRADAAPTVSIFPPSSEQLTSGGASVVCFLNNFYPKDINVKWKIDGSERQNGVLNSWTDQDSKDSTYSMSSTLTLTKDEYERHNSYTCEATHKTSTSPIVKSFNRNEC
Kd [1]: ~0.1 nM
Ka (1/Ms) association rate [1, 3]: 761.7 M⁻¹ s⁻¹
Kd (1/s) dissociation rate [1, 3]: 2.39e-07 s⁻¹
inhibitory activity on infection of normal human hepatocytes with HBV [2]: comparable activity
